# Publication PMC8318291, “CryoEM structure of the Nipah virus nucleocapsid assembly” (PLoS Pathogens, 2021)
# Values joined by “and” are separate entries in the source; they are usually repeats but may differ in a detail not shown here. Identical values can stand only once.
# B1: Nipah virus (NiV) nucleocapsid protein (natural protein)
# chain: MSDIFEEAASFRSYQSKLGRDGRASAATATLTTKIRIFVPATNSPELRWELTLFALDVIRSPSAAESMKVGAAFTLISMYSERPGALIRSLLNDPDIEAVIIDVGSMVNGIPVMERRGDKAQEEMEGLMRILKTARDSSKGKTPFVDSRAYGLRITDMSTLVSAVITIEAQIWILIAKAVTAPDTAEESETRRWAKYVQQKRVNPFFALTQQWLTEMRNLLSQSLSVRKFMVEILIEVKKGGSAKGRAVEIISDIGNYVEETGMAGFFATIRFGLETRYPALALNEFQSDLNTIKSLMLLYREIGPRAPYMVLLEESIQTKFAPGGYPLLWSFAMGVATTIDRSMGALNINRGYLEPMYFRLGQKSARHHAGGIDQNMANRLGLSSDQVAELAAAVQETSAGRQESNVQAREAKFAAGGVLIGGSDQDIDEGEEPIEQSGRQSVTFKREMSISSLANSVPSSSVSTSGGTRLTNSLLNLRSRLAAKAAKEAASSNATDDPAISNRTQGESEKKNNQDLKPAQNDLDFVRADV
# notes: also called N protein; nucleoprotein (N)
# Target: the molecule itself
# Assay: cryo-EM structure
protein,measurement,value
B1,stoichiometry N,13 subunits and 14 subunits
